# Test results: US20170275344A1, “POLYPEPTIDES AND USES THEREOF AS A DRUG FOR TREATMENT OF AUTOIMMUNE DISORDERS” (Compugen Ltd., priority 2014, published 2017)
# B1: C1ORF32 ECD-Fc (SEQ ID NO:42): fusion protein of human C1ORF32 ECD fused to mouse immunoglobulin Fc (human-mouse fusion protein) (protein)
# chain: LQVTVPDKKKVAMLFQPTVLRCHFSTSSHQPAVVQWKFKSYCQDRMGESLGMSSTRAQSLSKRNLEWDPYLDCLDSRRTVRVVASKQGSTVTLGDFYRGREITIVHDADLQIGKLMWGDSGLYYCIITTPDDLEGKNEDSVELLVLGRTGLLADLLPSFAVEIMGSENLYFQGSGEPRGPTIKPCPPCKCPAPNLLGGPSVFIFPPKIKDVLMISLSPIVTCVVVDVSEDDPDVQISWFVNNVEVHTAQTQTHREDYNSTLRVVSALPIQHQDWMSGKEFKCKVNNKDLPAPIERTISKPKGSVRAPQVYVLPPPEEEMTKKQVTLTCMVTDFMPEDIYVEWTNNGKTELNYKNTEPVLDSDGSYFMYSKLRVEKKNWVERNSYSCSVVHEGLHNHHTTKSFSRTPGK
# modifications: Fusion protein human C1ORF32-ECD fused to mouse IgG2a Fc
# How the values were obtained:
# SJL/J mice = experiment: PLP139-151/CFA R-EAE upon IL-10 or TGFb blockade, clinical score; type: in vivo, mouse
# Protocol: SJL/J mice were purchased from Harlan and primed with PLP139-151/CFA per the standard protocol, as described in 21.1.2 Methods, above). At disease remission the mice were split into 6 different treatment groups (n=5) as follows:
# Mice were treated with Control Ig (mouse IgG2a) or C1ORF32 ECD-Fc (SEQ ID NO:42) at 100 ug/dose, each via an i.p. injection. This was followed with a second i.p. injection on the same day of either anti-IL-10 (rat IgG1), rat IgG1 (control Ab), or anti-TGFβ (mouse IgG1) at 100 ug/dose, each. All treatments were given 3×/wk for 2 wks, beginning on day +20 (onset of disease remission) and until day +31 post disease induction. All mice were followed for disease scores until day 44 post disease induction. On day 44, mice were sacrificed and analyzed for total T cell and Treg cell numbers in spleen and CNS.
# At onset of disease remission (day +20 post disease induction) mice were allocated into 6 treatment groups (described above) and treated with either C1ORF32 ECD-Fc (SEQ ID NO:42) or control Ig (mIgG2a), and followed on the same day by treatment with anti-IL-10, anti-TGF-β, or rat IgG1 isotype control. All treatments were given at 100 ug/dose in 100 μl of PBS; via i.p. injection, at 3×/week for 2 weeks from onset of remission.
# Mice were followed for disease and scored on a 0-5 scale per standard lab protocol as follows: 0, no abnormality; 1, limp tail; 2, limp tail and hind limb weakness; 3, hind limb paralysis; 4, hind limb paralysis and forelimb weakness; and 5, moribund. Dead mice were scored with a score of 5 on the day of death only, and were not further scored on the next days.
# total splenocytes = experiment: Ex vivo recall responses of splenocytes, week 8 post bone marrow transplant; type: cell-based, mouse
# Protocol: (§1) On week 8 post bone marrow cell transplantion, total splenocytes (5×10^5 cells/well) were cultured in the presence of medium alone (no stimulation), anti-CD3 (1 ug/ml), DBY peptide (10 ug/ml), irradiated male splenocytes (5×10^5 cells/well), or irradiated female splenocytes (5×10^5 cells/well). The individual splenocyte samples were cultured separately in triplicate wells. For T cell proliferative response, the cultures were pulsed with 1 uCi of tritiated thymidine at 24 hours and harvested at 72 hours post culture initiation. The statistical analysis carried out on the data is one-way ANOVA followed by Dunnett's post test as compared to the mice receiving male CD45.1+ bone marrow cells plus Control Ig treatment, p-values*<0.05, **<0.01,***<0.001, and #<0.0001.
# as §1, with “transplant,” for “transplantion,”, “For” for “For T cell proliferative response,”, “cytokine cultures, the supernatants” for “cultures”, “collected” for “pulsed with 1 uCi of tritiated thymidine at 24 hours and harvested”, “initiation and the level of secreted cytokine was determined via LiquiChip.” for “initiation.”
# These same populations of cells were analyzed at week 8 within the spleen. In addition, the proliferative and secreted cytokine responses of total splenocytes in ex vivo recall cultures were tested in the presence of medium alone, anti-CD3 (1 ug/ml), the HY antigen DBY peptide (NAGFNSNRANSSRSS; Genemed Synthesis; San Antonio, Tex.) (10 ug/ml), irradiated male splenocytes (1:1 ratio), or irradiated female splenocytes (1:1 ratio).
# Male DBA/1O1aHsd mice = experiment: CIA model, early stage treatment from day 18; type: in vivo, mouse
# Source text: The aim of this study was to estimate the effect of C1ORF32-P8-V1-ECD-mFc (SEQ ID NO:42) on disease development in a type II Collagen induced arthritis (CIA) mouse model upon administration at early stage of disease; i.e., when specific and predictive markers for RA development are present in the serum, but before onset of clinical symptoms.
# In the CIA model, arthritis is induced by immunization with type II collagen in CFA on day 1 which is followed by boosting with type II collagen in CFA on day 21. Antibodies against both CII and cyclic citrullinated peptide (CCPs) appear early after immunization, before joint swelling is observed.
# To evaluate the effect of early stage treatment with C1ORF32-P8-V1-ECD-mFc (SEQ ID NO:42) on disease development treatment started on day 18 and was given IP injection, Q2D to mice from day 18 until day 32.
# Male DBA/1O1aHsd mice weighing 16-25 grams (mean 22 g) on day 18 of the study were obtained from Harlan, Inc., Indianapolis, Ind. Mice (10/group) were anaesthetized with Isoflurane, shaved at the base of the tail, and injected intradermally with 150 μl of Freund's Complete Adjuvant (Sigma) containing bovine type II collagen (Elastin Products, Owensville, Mo.) (2 mg/me at the base of the tail on day 0 and again on day 21. On study day 18, mice were randomized by body weight into treatment groups. Treatment was initiated after enrollment and continued every other day (Q2D at 48 h intervals) through study day 33. On study days 23-34, onset of arthritis occurred. Mice were terminated on study day 34. Clinical scores were given for each of the paws (right front, left front, right rear, left rear) on arthritis days 18-34.
# Mice were weighed on study days 18, 20, 22, 24, 26, 28, 30, 32 and 34 (prior to necropsy). […]
molecule,measurement,setting,value
B1,disease progression,"SJL/J mice; 100 ug/dose i.p. 3x/wk 2 wks from day +20, followed by rIgG1, vs control Abs only",pronounced inhibition of disease progression
same,beneficial effect on disease with concomitant anti-IL-10,SJL/J mice; followed by anti-IL-10 100 ug/dose,abrogated the beneficial effect
same,beneficial effect on disease with concomitant anti-TGFβ,SJL/J mice; followed by anti-TGFβ 100 ug/dose,abrogated the beneficial effect
same,mice found dead,"SJL/J mice; group C1ORF32 ECD-Fc and anti-TGFβ, day 28, n=5",1
same,mice found dead,"SJL/J mice; group C1ORF32 ECD-Fc in combination with anti-IL-10, day 28, n=5",2
same,"inflammatory cytokines (IFN-gamma, IL-17, GM-CSF, IL-12, IL-2 and TNF-alpha)","total splenocytes; activation with male irradiated splenocytes or DBY peptide, vs Ig control treated mice",significantly lower levels
same,"IFNg, IL-17, IL-2, IL-12 and GM-CSF secretion",total splenocytes; cultures stimulated with male irradiated splenocytes,inhibitory trend
same,level of IL-10 and IL-4 secreted,"total splenocytes; splenocytes of treated mice, in response to male or female splenocytes",significantly increased
same,effect of the lower dose,Male DBA/1O1aHsd mice; 3.3 mg/kg IP Q2D,No effect
same,clinical arthritis score,"Male DBA/1O1aHsd mice; 10 mg/kg IP Q2D from day 18, vs PBS or mIgG2a, did not reach significance",inhibition of clinical arthritis score
same,body weight loss (percent change from baseline),"Male DBA/1O1aHsd mice; 10 mg/kg, from study day 30 until termination, data not shown",significantly inhibited toward normal
